This note sets out measurements from paper PMC6831621, “Structural Insight Into Chitin Degradation and Thermostability of a Novel Endochitinase From the Glycoside Hydrolase Family 18” (Frontiers in Microbiology, 2019).

Positions count from the first letter of the chain named. Names may count otherwise.

B1: Chi23 (Pseudoalteromonas aurantia; G79A) (protein)
chain: MSKTITYYNSGAVPLINASELPYDVVNLAFLSSSSNNPFNLVLSGAIAATESSFTTNTIEAIKVMQHKGQKVLISFGGATMGSNAYRSLSEDTAKLADSLASFVKNNQLDGVDIDYEDTAAFTGQAGYDGAQFLISLTQELRKRLPSPDYIISHAPQPPYLEQGGYMAGYVEVVELVGQEIDWLNVQFYNNPPWSANPDQIVSSYLNYTKLPNMSPEKVIAGFPVTQNDAGSGYMPVQTIINEVIKPIQQQSSLGGIMNWQFSSDHNGDWIKAIAQSLNS
notes: pET22b NdeI/XhoI, His-tagged (C-terminal by primer design), E. coli BL21(DE3); monomer; forward primer encodes MSKTITYYNS, reverse primer encodes AQSLNS at the C-terminus
B2: Chi23 (Pseudoalteromonas aurantia; N190A) (protein)
chain: B1 chain with A79G, N190A
notes: as for B1
B3: Chi23 (Pseudoalteromonas aurantia; Q157A) (protein)
chain: B1 chain with A79G, Q157A
notes: as for B1
B4: Chi23 (Pseudoalteromonas aurantia) (protein)
chain: B1 chain with A79G
notes: as for B1
B5: Chi23 (Pseudoalteromonas aurantia; Q261A) (protein)
chain: B1 chain with A79G, Q261A
notes: as for B1
B6: Chi23 (Pseudoalteromonas aurantia; N9A) (protein)
chain: B1 chain with N9A, A79G
notes: pET22b NdeI/XhoI, His-tagged (C-terminal by primer design), E. coli BL21(DE3); monomer; forward primer encodes …, reverse primer encodes AQSLNS at the C-terminus
B7: Chi23 (Pseudoalteromonas aurantia; D229A) (protein)
chain: B1 chain with A79G, D229A
notes: as for B1
B8: Chi23 (Pseudoalteromonas aurantia; T80A) (protein)
chain: B1 chain with A79G, T80A
notes: as for B1

Substrate in the data set: CC(=O)N[C@H]1[C@H](Oc2ccc3c(C)cc(=O)oc3c2)O[C@H](CO)[C@@H](O[C@@H]2O[C@H](CO)[C@@H](O)[C@H](O)[C@H]2NC(C)=O)[C@@H]1O
Put plainly: fluorogenic substrate hydrolysis, Michaelis-Menten non-linear fit. The format is biochemical, Pseudoalteromonas aurantia. Particulars: McIlvaine's buffer pH 5.0, substrate 0.01-0.6 mM, temperature not given for kinetics. From the text:
fluorogenic substrate hydrolysis, Michaelis-Menten non-linear fit on Chi23
For B1, the Km is 72.6 ± 6.9 µM, the Vmax was 0.0576 µmol/min/mg and the kcat was determined as 0.0295 ± 0.0013 s⁻¹.

As for B2, the Km stood at 77.4 ± 16.2 µM, the Vmax amounted to 4e-05 µmol/min/mg and the kcat was 2e-05 ± 2e-06 s⁻¹.

As for B3, the Michaelis-Menten constant (Km) was 104.1 ± 17.5 µM, the Vmax was 0.0044 µmol/min/mg and the kcat was found to be 0.0022 ± 0.0002 s⁻¹.

Take B4: the Km is 64.6 ± 11.7 µM, the Vmax was found to be 0.0107 µmol/min/mg and the kcat was found to be 0.0054 ± 0.0005 s⁻¹.

B5: the Km stood at 86.3 ± 6.6 µM, the Vmax was 0.0009 µmol/min/mg and the kcat was 0.0005 ± 2e-05 s⁻¹.

Take B6: the Km turned out to be 90.1 ± 13.4 µM, the Vmax was 0.0042 µmol/min/mg and the kcat is 0.0021 ± 0.0002 s⁻¹.

For B7, the Km was 80.1 ± 6.3 µM, the maximal velocity (Vmax) is 0.0027 µmol/min/mg and the kcat turned out to be 0.0014 ± 5e-05 s⁻¹.

Consider B8, for which the Km was found to be 85.6 ± 7.2 µM, the Vmax stood at 0.0144 µmol/min/mg and the kcat is 0.0073 ± 0.0003 s⁻¹.

The term Km denotes the substrate concentration at which the rate is half of its maximum. As usually defined, the Vmax is the rate approached at saturating substrate. As usually defined, the kcat is the maximal rate divided by the concentration of active sites.
